Laboratory results published in US11786477B2, “Fibrin particles and methods of making the same” (NORTH CAROLINA STATE UNIVERSITY, priority 2017, dated 2023).

How the values were obtained:
[1] = tested on: epithelial dorsal dermal wounds; assay: In vivo dermal wound healing in mice; settings: C57BF/6 mice; for 3-day average dermal area closure: 4 mm biopsy punch wounds, first 3 days; for slope of linear fit of average % normalized wound area: assuming linear healing rate of the first 3 days
Procedure: In vivo validation that fibrin nanoparticles can assist wound healing was performed in mice. Dermal wounds were created and the rate of healing measured over several days. Two epithelial dorsal dermal wounds were created in10-week-old healthy male […]/6 mice (Charles River Faboratories Wilmington, Mass.) using a 4 mm diameter biopsy punch. The skin was excised and the inner […] was removed using surgical tools. Wound healing due to skin refolding was prevented by stitching the surrounding skin to a sterilized silicone ring. The annular silicone ring was laser cut from a silicone sheet acquired from Grace Bio-Fabs, Bend, Oreg., to a required inner diameter of 4.9 mm. The silicone ring was held in position with stationary glue and stitches. […] Each wound was immediately imaged using a handheld Nikon camera and separately treated with control 0.9% saline, bulk fibrin gel (400 (μg), FBN (20 (μg), or FBN-KGF (20 μg at the highest concentration). After treatment, the wound was covered with translucent moisture responsive catheter dressing (IV3000, Smith & Nephew, Andover, Mass.) attached over the silicone ring. The porous sheet was also laser cut to the required dimensions to aid the surgeon and to match the wound area. The wound area was imaged using a handheld Nikon camera every 24 hours after removing the translucent dressing. Image analysis of the wound was performed in ImageJ and the scale was measured using the known inner diameter of the silicone ring. The % change in wound area on each day was compared its wound area in day 0 (day of biopsy). The rate of wound healing was quantified by plotting averaged % normalized wound area for each wound treatment. The slope of a linear fit of the average % normalized wound area for the first 3 days post biopsy was calculated in Prism and 2-way Anova statistics were performed to compare the slopes of each treatment (FIG. 9).

[2] = tested on: Human dermal fibroblasts; assay: In vitro 3D collagen gel wound model, cell migration into biopsied wound; type: cell-based; settings: 3D collagen gels, 20 μl sample into biopsied region, compared with saline and free KGF controls
Procedure: Human dermal fibroblasts (500,000 cells/ml) were embedded in 3D collagen gels (3 mg/ml) in serum-free culture media. Using biopsy punches, “wounds” 2 mm in diameter were created with approximately 0.5-1 mm depth. The biopsied 3D wounds were filled with fibrin nanoparticles (FBN), FBN with attached Keratinocyte Growth Factor (FBN-KGF) or saline (controls). The number of cells migrating into the hole from the surrounding 3D collagen gel was counted every 18-24 hours. Data from each sample was normalized to its biopsy area (in mm^2). The cell migration rate was measured by counting cell numbers within the normalized biopsy area (# cells/unit area) on each day. Each treatment was compared with saline and KGF only controls. […] Bulk fibrin sealants require high concentrations of fibrinogen and thrombin in order to induce fast polymerization at the surgical/wound site; by delivering prepolymerized FBNs we are able to circumvent this issue and without inhibiting migration.

B1: FBN-KGF: Keratinocyte growth factor covalently coupled to FBN using carbodiimide and N-hydroxysulfosuccinimide (conjugate, UniProt P21781 32-194, looked up)
Fibroblast growth factor 7: CNDMTPEQMATNVNCSSPERHTRSYDYMEGGDIRVRRLFCRTQWYLRIDKRGKVKGTQEMKNNYNIMEIRTVAVGIVAIKGVESEFYLAMNKEGKLYAKKECNEDCNFKELILENHYNTYASAKWTHNGGEMFVALNQKGIPVRGKKTKKEQKTAHFLPMAIT
modifications: coupled to FBN nanoparticles
notes: Keratinocyte growth factor covalently coupled to FBN using carbodiimide and N-hydroxysulfosuccinimide
Question: For B1, which “3-day average dermal area closure” value [1] is on record?
Answer: Its value is 48±9%.

Question: What about the “slope of linear fit of average % normalized wound area” value [1] of the same molecule?
Answer: Its value is −16±3.

Question: What about the “cell recruitment / cell migration into 3D wound” value [2] of the same molecule?
Answer: The value was “significantly enhanced cell recruitment and or cell proliferation”.

B2: free KGF: Keratinocyte growth factor (CYT-219, Prospec Protein Specialist) (protein, UniProt P21781 32-194, looked up)
Fibroblast growth factor 7: CNDMTPEQMATNVNCSSPERHTRSYDYMEGGDIRVRRLFCRTQWYLRIDKRGKVKGTQEMKNNYNIMEIRTVAVGIVAIKGVESEFYLAMNKEGKLYAKKECNEDCNFKELILENHYNTYASAKWTHNGGEMFVALNQKGIPVRGKKTKKEQKTAHFLPMAIT
Question: With B2 as the molecule, how does the “3-day average dermal area closure” value [1] read?
Answer: Its value is 42±12%.

Question: What about the “slope of linear fit of average % normalized wound area” value [1] of the same molecule?
Answer: Its value is −14±2.
